Here are results for four molecules from patent US20090162358A1 (GlaxoSmithKline, published 2009).

Assay [1] addresses T1, C-terminally biotinylated peptide representing 31-42 of the β-amyloid sequence.
T1 construct: Captured on a streptavidin sensorchip; also called peptide 31-42
T1 peptide: IIGLMVGGVVIAGSG-biotin
Put plainly: SPR Biacore 3000, biotinylated peptide on streptavidin chip. As for the experimental part:
(§1) Purified 6F6 monoclonal antibody was injected for 3 min at 8-64 nM over C-terminally biotinylated peptides representing 24-35 (SEQ ID No:10: […]), 28-39 (SEQ ID No:11: […]) and 31-42 (SEQ ID No:12: […]) of the β-amyloid sequence captured by a streptavidin coated sensorchip. The experiment was performed using a Biacore 3000 instrument. […] It may also indicate that residues 31-35 are not sufficient for binding 6F6 and residues above position 35 appear not to be involved in binding this antibody.
(Surface plasmon resonance follows binding to a sensor surface in real time, without labels.)

In assay [2] the target is T2, N-terminal biotinylated β-amyloid (24-34) peptide.
T2 peptide: Biotin-VGSNKGAIIGL
Put plainly: FMAT bead immunoassay, culture supernatant. An excerpt: (§2) Each of the expressed antibodies contained in culture supernatant was then screened in an FMAT (Fluorescent Microvolume Assay Technology) homogenous immunoassay. 29 positive antibodies were identified from this screening cascade that were negative for ovalbumin protein passively absorbed to polystyrene beads but positive for: [0158] (i) N-terminal coupled […] (22-38) (SEQ ID No:73) ovalbumin conjugate bound to polystyrene beads, [0159] (ii) N-terminal biotinylated β-amyloid(1-40) peptide bound to streptavidin coated polystyrene beads, [0160] (iii) C-terminal biotinylated β-amyloid(1-40) peptide bound to streptavidin coated polystyrene beads and [0161] (iv) N-terminal biotinylated β-amyloid (24-34) peptide, residues 24-34 of β-amyloid being […] (SEQ ID No:8), bound to streptavidin coated polystyrene beads.

Assay [3] has as its target T3, N-terminal coupled CGGGEDVGSNKGAIIGLMVGG (22-38) ovalbumin conjugate (coupled by the N-terminus to ovalbumin).
T3 peptide: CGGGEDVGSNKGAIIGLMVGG
In words: FMAT bead immunoassay, culture supernatant.
Description: as §2

Another assay has as its target T4, ovalbumin protein (UniProt P01012 2-386).
T4 sequence (looked up): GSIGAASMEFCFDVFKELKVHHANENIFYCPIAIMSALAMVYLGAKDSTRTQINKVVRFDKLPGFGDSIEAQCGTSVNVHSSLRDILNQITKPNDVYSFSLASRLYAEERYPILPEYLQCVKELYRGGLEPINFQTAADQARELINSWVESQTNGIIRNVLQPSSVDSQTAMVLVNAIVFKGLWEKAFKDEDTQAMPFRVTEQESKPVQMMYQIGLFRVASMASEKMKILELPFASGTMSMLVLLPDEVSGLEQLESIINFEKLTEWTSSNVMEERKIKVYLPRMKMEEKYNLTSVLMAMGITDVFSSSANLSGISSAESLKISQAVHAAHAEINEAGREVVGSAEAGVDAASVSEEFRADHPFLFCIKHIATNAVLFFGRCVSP
In words: FMAT bead immunoassay, culture supernatant.
Description: as §2

Assay [4] has as its target T5, human β-amyloid 1-40 (human, UniProt P05067 672-711).
T5 construct: domain: β-amyloid (1-40); Used in solution over captured antibody (Biacore) or coated on ELISA plates; also called human Aβ peptide (1-40); Aβ peptide (1-40)
In words: SPR Biacore 3000; mAb captured on anti-mouse IgG; triplicate run. The procedure: (§3) Purified mouse antibody preparations were captured on a polyclonal anti-mouse IgG antibody chip surface. Freshly prepared human β-amyloid 1-40 was diluted down in HBS-EP buffer and passed over the captured antibody surface at concentrations ranging from 4-500 nM for 5 minutes. […] Regeneration was achieved via a pulse of 100 mM H₃PO₄. […] All runs were double referenced against a blank surface and blank buffer injections.

Another assay addresses T6, mouse β-amyloid (1-40) (mouse, UniProt P12023 672-711).
T6 construct: domain: β-amyloid (1-40)
T6 peptide (looked up): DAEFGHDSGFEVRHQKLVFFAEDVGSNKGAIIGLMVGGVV
In words: SPR Biacore, same method as Table 2. As for the experimental part: as §3
(§4) The same Biacore method was also used to investigate binding of 6F6 to human and mouse β-amyloid (1-40) and β-amyloid (1-42). 6F6 bound to all of these peptides with similar values.

The target in a further assay is T7, mouse β-amyloid (1-42) (mouse, UniProt P12023 672-713).
T7 construct: domain: β-amyloid (1-42)
T7 peptide (looked up): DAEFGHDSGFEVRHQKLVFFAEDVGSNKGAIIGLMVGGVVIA
In words: SPR Biacore, same method as Table 2. As for the experimental part:
as §3, §4

Assay [5] has as its target T8, C-terminally biotinylated peptide representing 28-39 of the β-amyloid sequence.
T8 construct: Captured on a streptavidin sensorchip; also called peptide 28-39
T8 peptide: KGAIIGLMVGGVGSG-biotin
In words: SPR Biacore 3000, biotinylated peptide on streptavidin chip, 6F6 at 8-64 nM. The procedure:
as §1

Assay [6] has as its target T9, C-terminally biotinylated peptide representing 24-35 of the β-amyloid sequence.
T9 construct: Captured on a streptavidin sensorchip; also called peptide 24-35
T9 peptide: VGSNKGAIIGLMGSG-biotin
Described as above. As for the experimental part:
as §1

The target in assay [7] is T5, human β-amyloid 1-40. In words: SPR Biacore 3000; mAb captured on anti-mouse IgG, Aβ 1-40 at 4-500 nM. The procedure:
as §3

In assay [8] the target is T10, biotinylated β-amyloid 1-40 (human Aβ1-40 peptide in solution, competition ELISA) (human, UniProt P05067 672-711, biotin, position not stated).
T10 construct: domain: β-amyloid (1-40)
T10 sequence (P05067 672-711 limits assumed): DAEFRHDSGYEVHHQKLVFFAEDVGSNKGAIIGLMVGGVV
In words: competition ELISA: antibody pre-incubated with biotinylated Aβ 1-40, free Aβ captured on immobilised mouse 6F6 (competitor); Exp 1. As for the experimental part:
(§5) 6F6c and humanised antibodies H₁₁L2, H11L9, H11L10, H11L12 and H11L13 were assessed for their ability to bind Aβ1-40 peptide in solution and inhibit the interaction of human Aβ1-40 peptide with mouse 6F6 monoclonal antibody in a competition ELISA. A constant concentration of biotinylated β-amyloid 1-40 was pre-incubated with serial diluted amounts of humanised 6F6 antibody variants. The mixture including complexed and free amyloid was then added to wells containing immobilised mouse 6F6 monoclonal antibody and incubated for 15 minutes at room temperature. Plates were washed and the amount of free β-amyloid that was still available for binding the immobilised parental 6F6 monoclonal antibody was then detected using streptavidin-HRP conjugate.
In general terms: In an ELISA, binding on a coated surface is turned into a signal by an enzyme label.

Assay [9] deals with T10, biotinylated β-amyloid 1-40 (human …). In words: competition ELISA: antibody pre-incubated with biotinylated Aβ 1-40, free Aβ captured on immobilised mouse 6F6 (competitor); Exp 2. The procedure: as §5
For assay [10], the target named is T5, human β-amyloid 1-40. In words: SPR Biacore T100, 25 C; antibody captured on protein A, Aβ 1-40 at 2-256 nM; mean of three experiments. As for the experimental part:
The affinity of selected heavy and light chain combinations was determined using a Biacore T100 instrument. Three independent experiments were performed using humanised antibody immobilised via protein A surface Biacore chips and injection of β-amyloid 1-40 peptides. The chimeric molecule of 6F6 served as a reference molecule. For this Protein A was immobilised on a CM5 chip by primary amine coupling in accordance with manufactures recommendations. Anti-β-amyloid antibodies were captured on this surface and after a period of stabilisation human β-amyloid 1-40 was passed over at concentrations 256-2 nM in halving dilutions. A buffer injection over the captured antibody surface was used to double reference the data set in accordance with Biacore best practice. […] The work was carried out in HBS-EP at 25° C. Results are summarised in Table 13 as the mean of all three experiments.

The target of assay [11] is T5, human β-amyloid 1-40. Put plainly: SPR Biacore T100; antibody captured on anti-human IgG, Aβ 1-40 at 1-256 nM; 1:1 model. The procedure: Anti-human IgG (Biacore BR-1008-39) was coupled to a CM5 biosensor chip by primary amine coupling. The anti-beta amyloid antibodies were captured on this surface. Beta amyloid (1-40) was then passed over at 256, 64, 16, 4 and 1 nM, with a 0 nM (ie buffer alone passed over the captured antibody surface) used for double referencing. […] The data was analysed using the 1:1 model inherent to the T100. The run was carried out at 25° C. and 37° C. using HBS-EP as the running buffer.

The target of assay [12] is T5, human β-amyloid 1-40. Put plainly: ELISA on human Aβ peptide (1-40), in combination with H11.

Ends that are not written are not given here. * marks the point of attachment. Biotin = O=C1N[C@H]2[C@H](CS[C@H]2CCCCC(=O)*)N1

B1: 6F6 murine monoclonal antibody (antibody, mouse IgG2a, V domains shown)
VH: EVQLQQSGAELVEPGASVKLSCTGSGFNIKVYYVHWLKQLTEQGLEWIGRIDPENGETIYTPKFQDKATLTVDTSSNTAYLQLSSLTSEDAAVYYCVSSGYWGQGTTLTVSS
VL: DIVMTQSAFSNPVTLGTSASISCRSSKSLLHRNGITYLYWYLQKPGQPPQLLIYQMSNLASGVPDRFTSSGSGTDFTLKISRVEAEDVGVYYCAQNLELWTFGGGTKLEIK
notes: also called 6F6 parental monoclonal antibody; mouse 6F6 monoclonal antibody
For B1, the binding result in [1] is listed as “no binding (tested: 8-64 nM)”; in assay [2], “binds”; in [3], “binds”; in the assay with ovalbumin protein, “no binding”; in the assay with mouse β-amyloid (1-40), “binds”; in the assay with mouse β-amyloid (1-42), “binds”. In addition, the binding result in assay [5] and in [6] was “binds” throughout. The dissociation constant (Kd) (commonly a measure of binding affinity in units of concentration) was 1.02 nM with human β-amyloid 1-40 [4] and 0.62 nM with human β-amyloid 1-40 [7]. Besides, the koff (as a rule, the rate constant with which the complex falls apart) in the assay with human β-amyloid 1-40 [4] worked out at 9.4e-05 s⁻¹; with human β-amyloid 1-40 [7], 6.57e-05 s⁻¹. For the same molecule, the kon (as a rule, a measure of how fast the partners come together) with human β-amyloid 1-40 [4] turned out to be 99300 M⁻¹ s⁻¹; in the assay with human β-amyloid 1-40 [7], 106000 M⁻¹ s⁻¹.

B2: chimeric 6F6 antibody (6F6c) (antibody, human IgG1, V domains shown)
VH: EVQLQQSGAELVEPGASVKLSCTGSGFNIKVYYVHWLKQLTEQGLEWIGRIDPENGETIYTPKFQDKATLTVDTSSNTAYLQLSSLTSEDAAVYYCVSSGYWGQGTLVTVSS
VL: DIVMTQSAFSNPVTLGTSASISCRSSKSLLHRNGITYLYWYLQKPGQPPQLLIYQMSNLASGVPDRFTSSGSGTDFTLKISRVEAEDVGVYYCAQNLELWTFGGGTKLEIK
notes: Murine V regions on human IgG1 (Fc disabled) and human C kappa; also called 6F6 Chimera (pur); chimeric molecule of 6F6
In the case of B2, the values for the concentration for half-maximal inhibition (IC50) in assay [8] and in assay [9] were 0.566 µg/mL and 0.451 µg/mL, respectively. The dissociation constant (Kd) with human β-amyloid 1-40 [10] was determined as 3.74 nM; in the assay with human β-amyloid 1-40 [11] it was 1 nM.

B3: straight graft light chain L0 in combination with H11 (antibody, V domains shown)
VH: QVQLVQSGAEVKEPGASVKVSCKGSGFNIKVYYVHWLRQLPGKGLEWIGRIDPENGETIYTPKFQDKATLTVDTSTDTAYMELSSLRSEDTAVYYCVSSGYWGQGTLVTVSS
VL: DIVMTQSPLSLPVTPGEPASISCRSSKSLLHRNGITYLYWYLQKPGQSPQLLIYQMSNLASGVPDRFSGSGSGTDFTLKISRVEAEDVGVYYCAQNLELWTFGQGTKVEIKR
notes: Kabat positions; after CDRL1 the count on the entry is Kabat + 5; also called H11L0
Turning to B3, the binding result with human β-amyloid 1-40 [12] is given as “binds”.

B4: humanised VL variant L14 in combination with H11 (antibody, V domains shown)
VH: QVQLVQSGAEVKEPGASVKVSCKGSGFNIKVYYVHWLRQLPGKGLEWIGRIDPENGETIYTPKFQDKATLTVDTSTDTAYMELSSLRSEDTAVYYCVSSGYWGQGTLVTVSS
VL: DIVMTQSPLSLPVTPGEPASISCRSSKSLLHRNGITYLYWYLQKPGQPPQLLIYQMSNLASGVPDRFSGSGSGTDFTLKISRVEAEDVGVYYCAQNLELWTFGGGTKVEIKR
notes: Kabat positions; after CDRL1 the count on the entry is Kabat + 5; also called H11L14
Take B4: the binding result with human β-amyloid 1-40 [12] is “binds”.
